This note sets out measurements from patent US20180291110A1 (Hoffmann-La Roche, published 2018).

The chains are these.
B1: 2/99 VH8/VL14 (antibody, V domains shown)
VH: QQLVETGGGLIQPGGSLRLSCAASGFSLSSYAMSWVRQAPGKGLEWIGYIWSGGSTDYASWAKGRFTISKTSTTLYLQMNSLRAEDTAVYYCARRYGTSYPDYGDANGFDPWGQGTLVTVSS
VL: DIVMTQSPDSLAVSLGERATINCKSSQSISSYLSWYQQKPGQRPKLLIYRASTLASGVPDRFSGSGSGTDFTLTISSLQAEDVAVYYCQQSYSSSNVDNTFGGGTKVEIK
B2: 2/99 VH5/VL15 (antibody, V domains shown)
VH: QSMEETGGGLIQPGGSLRLSCAASGFSLSSYAMSWVRQAPGKGLEWVGYIWSGGSTDYADSVKGRFTISRDNSKNTLYLQMNSLRAEDTAVYYCARRYGTSYPDYGDANGFDPWGPGTLVTVSS
VL: DIVMTQSPDSLAVSLGERATINCKSSQSISSYLIWYQQKPGQPPKLLIYRASTLASGVPDRFSGSGSGTDFTLTISSLQAEDVAVYYCQQAYSSSNVDNTFGGGTKVEIK
B3: 2/99 VH6/VL15 (antibody, V domains shown)
VH: QQLVETGGGLIQPGGSLRLSCAASGFSLSSYAMSWVRQAPGKGLEWIGYIWSGGSTDYADSVKGRFTISRDNSKNTLYLQMNSLRAEDTAVYYCARRYGTSYPDYGDANGFDPWGQGTLVTVSS
VL: DIVMTQSPDSLAVSLGERATINCKSSQSISSYLIWYQQKPGQPPKLLIYRASTLASGVPDRFSGSGSGTDFTLTISSLQAEDVAVYYCQQAYSSSNVDNTFGGGTKVEIK
B4: 2/99 VH2/VL15 (antibody, V domains shown)
VH: EVQLVETGGGLIQPGGSLRLSCAASGFSLSSYAMSWVRQAPGKGLEWVGYIWSGGSTDYADSVKGRFTISRDNSKNTLYLQMNSLRAEDTAVYYCARRYGTSYPDYGDANGFDPWGQGTLVTVSS
VL: DIVMTQSPDSLAVSLGERATINCKSSQSISSYLIWYQQKPGQPPKLLIYRASTLASGVPDRFSGSGSGTDFTLTISSLQAEDVAVYYCQQAYSSSNVDNTFGGGTKVEIK
B5: 2/99 VH22/VL14 (antibody, V domains shown)
VH: QSMQESGPGLVKPSQTLSLTCTVSGFSLSSYAMSWVRQHPGKGLEWIGYIWSGGSTDYASWAKSRVTISVDTSKNQVSLKLSSVTAADTAVYYCARRYGTSYPDYGDANGFDPWGQGTLVTVSS
VL: DIVMTQSPDSLAVSLGERATINCKSSQSISSYLSWYQQKPGQRPKLLIYRASTLASGVPDRFSGSGSGTDFTLTISSLQAEDVAVYYCQQSYSSSNVDNTFGGGTKVEIK
B6: 2/99 VH13/VL14 (antibody, V domains shown)
VH: QVQLQESGPGLVKPSETLSLTCTVSGFSLSSYAMSWIRQPPGKGLEWIGYIWSGGSTDYNPSLKSRVTISVDTSKNQVSLKLSSVTAADTAVYYCARRYGTSYPDYGDANGFDPWGQGTLVTVSS
VL: DIVMTQSPDSLAVSLGERATINCKSSQSISSYLSWYQQKPGQRPKLLIYRASTLASGVPDRFSGSGSGTDFTLTISSLQAEDVAVYYCQQSYSSSNVDNTFGGGTKVEIK
B7: 2/99 VH17/VL14 (antibody, V domains shown)
VH: QQLQESGPGLVKPSETLSLTCTVSGFSLSSYAMSWVRQPPGKGLEWIGYIWSGGSTDYNPSLKSRVTISKDTSKNQVSLKLSSVTAADTAVYYCARRYGTSYPDYGDANGFDPWGPGTLVTVSS
VL: DIVMTQSPDSLAVSLGERATINCKSSQSISSYLSWYQQKPGQRPKLLIYRASTLASGVPDRFSGSGSGTDFTLTISSLQAEDVAVYYCQQSYSSSNVDNTFGGGTKVEIK
B8: 2/99 VH9/VL14 (antibody, V domains shown)
VH: QQLLESGGGLVQPGGSLRLSCAASGFTFSSYAMSWVRQAPGKGLEWVGYIWSGGSTDYADSVKGRFTISRDNSKNTLYLQMNSLRAEDTAVYYCAKRYGTSYPDYGDANGFDPWGQGTLVTVSS
VL: DIVMTQSPDSLAVSLGERATINCKSSQSISSYLSWYQQKPGQRPKLLIYRASTLASGVPDRFSGSGSGTDFTLTISSLQAEDVAVYYCQQSYSSSNVDNTFGGGTKVEIK
B9: 2/99 VH9/VL15 (antibody, V domains shown)
VH: QQLLESGGGLVQPGGSLRLSCAASGFTFSSYAMSWVRQAPGKGLEWVGYIWSGGSTDYADSVKGRFTISRDNSKNTLYLQMNSLRAEDTAVYYCAKRYGTSYPDYGDANGFDPWGQGTLVTVSS
VL: DIVMTQSPDSLAVSLGERATINCKSSQSISSYLIWYQQKPGQPPKLLIYRASTLASGVPDRFSGSGSGTDFTLTISSLQAEDVAVYYCQQAYSSSNVDNTFGGGTKVEIK
B10: 2/99 VH12/VL14 (antibody, V domains shown)
VH: QVQLQESGPGLVKPSETLSLTCTVSGFSLSSYAMSWIRQPPGKGLEWIGYIWSGGSTDYNPSLKSRVTISVDTSKNQFSLKLSSVTAADTAVYYCARRYGTSYPDYGDANGFDPWGQGTLVTVSS
VL: DIVMTQSPDSLAVSLGERATINCKSSQSISSYLSWYQQKPGQRPKLLIYRASTLASGVPDRFSGSGSGTDFTLTISSLQAEDVAVYYCQQSYSSSNVDNTFGGGTKVEIK
B11: 2/99 VH7/VL15 (antibody, V domains shown)
VH: QQLVETGGGLIQPGGSLRLSCAASGFSLSSYAMSWVRQAPGKGLEWIGYIWSGGSTDYASWAKGRFTISRDNSKNTLYLQMNSLRAEDTAVYYCARRYGTSYPDYGDANGFDPWGQGTLVTVSS
VL: DIVMTQSPDSLAVSLGERATINCKSSQSISSYLIWYQQKPGQPPKLLIYRASTLASGVPDRFSGSGSGTDFTLTISSLQAEDVAVYYCQQAYSSSNVDNTFGGGTKVEIK
B12: 2/99 VH20/VL14 (antibody, V domains shown)
VH: QSMQESGPGLVKPSQTLSLTCTVSGFSLSSYAMSWIRQHPGKGLEWIGYIWSGGSTDYAPSLKSRVTISVDTSKNQVSLKLSSVTAADTAVYYCARRYGTSYPDYGDANGFDPWGQGTLVTVSS
VL: DIVMTQSPDSLAVSLGERATINCKSSQSISSYLSWYQQKPGQRPKLLIYRASTLASGVPDRFSGSGSGTDFTLTISSLQAEDVAVYYCQQSYSSSNVDNTFGGGTKVEIK
B13: 2/99 VH16/VL14 (antibody, V domains shown)
VH: QQLQESGPGLVKPSETLSLTCTVSGFSLSSYAMSWVRQPPGKGLEWIGYIWSGGSTDYNPSLKSRVTISVDTSKNQVSLKLSSVTAADTAVYYCARRYGTSYPDYGDANGFDPWGPGTLVTVSS
VL: DIVMTQSPDSLAVSLGERATINCKSSQSISSYLSWYQQKPGQRPKLLIYRASTLASGVPDRFSGSGSGTDFTLTISSLQAEDVAVYYCQQSYSSSNVDNTFGGGTKVEIK
B14: 2/99 VH1/VL15 (antibody, V domains shown)
VH: VQLVETGGGLIQPGGSLRLSCAASGFSLSSYAMSWVRQAPGKGLEWVGYIWSGGSTDYADSVKGRFTISRDNSKNTLYLQMNSLRAEDTAVYYCARRYGTSYPDYGDANGFDPWGQGTLVTVSS
VL: DIVMTQSPDSLAVSLGERATINCKSSQSISSYLIWYQQKPGQPPKLLIYRASTLASGVPDRFSGSGSGTDFTLTISSLQAEDVAVYYCQQAYSSSNVDNTFGGGTKVEIK
B15: 2/99 VH21/VL14 (antibody, V domains shown)
VH: QSMQESGPGLVKPSQTLSLTCTVSGFSLSSYAMSWIRQHPGKGLEWIGYIWSGGSTDYASWAKSRVTISVDTSKNQVSLKLSSVTAADTAVYYCARRYGTSYPDYGDANGFDPWGQGTLVTVSS
VL: DIVMTQSPDSLAVSLGERATINCKSSQSISSYLSWYQQKPGQRPKLLIYRASTLASGVPDRFSGSGSGTDFTLTISSLQAEDVAVYYCQQSYSSSNVDNTFGGGTKVEIK
B16: 2/99 VH23-DANG/VL14 (antibody, V domains shown)
VH: QSMQESGPGLVKPSQTLSLTCTVSGFSLSSYAMSWIRQHPGKGLEWIGYIWSGGSTDYASWAKSRVTISKTSTTVSLKLSSVTAADTAVYYCARRYGTSYPDYGDANGFDPWGQGTLVTVSS
VL: DIVMTQSPDSLAVSLGERATINCKSSQSISSYLSWYQQKPGQRPKLLIYRASTLASGVPDRFSGSGSGTDFTLTISSLQAEDVAVYYCQQSYSSSNVDNTFGGGTKVEIK
B17: 2/99 VH11/VL14 (antibody, V domains shown)
VH: QQLLESGGGLVQPGGSLRLSCAASGFSLSSYAMSWVRQAPGKGLEWVGYIWSGGSTDYADSVKGRFTISRDNSKNTLYLQMNSLRAEDTAVYYCARRYGTSYPDYGDANGFDPWGQGTLVTVSS
VL: DIVMTQSPDSLAVSLGERATINCKSSQSISSYLSWYQQKPGQRPKLLIYRASTLASGVPDRFSGSGSGTDFTLTISSLQAEDVAVYYCQQSYSSSNVDNTFGGGTKVEIK
B18: 2/99 VH19/VL14 (antibody, V domains shown)
VH: QSMQESGPGLVKPSQTLSLTCTVSGFSLSSYAMSWIRQHPGKGLEWIGYIWSGGSTDYAPSLKSRVTISVDTSKNQFSLKLSSVTAADTAVYYCARRYGTSYPDYGDANGFDPWGQGTLVTVSS
VL: DIVMTQSPDSLAVSLGERATINCKSSQSISSYLSWYQQKPGQRPKLLIYRASTLASGVPDRFSGSGSGTDFTLTISSLQAEDVAVYYCQQSYSSSNVDNTFGGGTKVEIK
B19: 2/99 VH18/VL14 (antibody, V domains shown)
VH: QVQLQESGPGLVKPSQTLSLTCTVSGFSLSSYAMSWIRQHPGKGLEWIGYIWSGGSTDYAPSLKSRVTISVDTSKNQFSLKLSSVTAADTAVYYCARRYGTSYPDYGDANGFDPWGQGTLVTVSS
VL: DIVMTQSPDSLAVSLGERATINCKSSQSISSYLSWYQQKPGQRPKLLIYRASTLASGVPDRFSGSGSGTDFTLTISSLQAEDVAVYYCQQSYSSSNVDNTFGGGTKVEIK
B20: 2/99 VH8/VL15 (antibody, V domains shown)
VH: QQLVETGGGLIQPGGSLRLSCAASGFSLSSYAMSWVRQAPGKGLEWIGYIWSGGSTDYASWAKGRFTISKTSTTLYLQMNSLRAEDTAVYYCARRYGTSYPDYGDANGFDPWGQGTLVTVSS
VL: DIVMTQSPDSLAVSLGERATINCKSSQSISSYLIWYQQKPGQPPKLLIYRASTLASGVPDRFSGSGSGTDFTLTISSLQAEDVAVYYCQQAYSSSNVDNTFGGGTKVEIK
B21: 2/99 VH15/VL14 (antibody, V domains shown)
VH: QQLQESGPGLVKPSETLSLTCTVSGFSLSSYAMSWVRQPPGKGLEWIGYIWSGGSTDYNPSLKSRVTISVDTSKNQVSLKLSSVTAADTAVYYCARRYGTSYPDYGDANGFDPWGQGTLVTVSS
VL: DIVMTQSPDSLAVSLGERATINCKSSQSISSYLSWYQQKPGQRPKLLIYRASTLASGVPDRFSGSGSGTDFTLTISSLQAEDVAVYYCQQSYSSSNVDNTFGGGTKVEIK

As a reminder, the koff is a measure of how fast the partners let go of each other.

T1 sequence (P02786 89-760 limits assumed): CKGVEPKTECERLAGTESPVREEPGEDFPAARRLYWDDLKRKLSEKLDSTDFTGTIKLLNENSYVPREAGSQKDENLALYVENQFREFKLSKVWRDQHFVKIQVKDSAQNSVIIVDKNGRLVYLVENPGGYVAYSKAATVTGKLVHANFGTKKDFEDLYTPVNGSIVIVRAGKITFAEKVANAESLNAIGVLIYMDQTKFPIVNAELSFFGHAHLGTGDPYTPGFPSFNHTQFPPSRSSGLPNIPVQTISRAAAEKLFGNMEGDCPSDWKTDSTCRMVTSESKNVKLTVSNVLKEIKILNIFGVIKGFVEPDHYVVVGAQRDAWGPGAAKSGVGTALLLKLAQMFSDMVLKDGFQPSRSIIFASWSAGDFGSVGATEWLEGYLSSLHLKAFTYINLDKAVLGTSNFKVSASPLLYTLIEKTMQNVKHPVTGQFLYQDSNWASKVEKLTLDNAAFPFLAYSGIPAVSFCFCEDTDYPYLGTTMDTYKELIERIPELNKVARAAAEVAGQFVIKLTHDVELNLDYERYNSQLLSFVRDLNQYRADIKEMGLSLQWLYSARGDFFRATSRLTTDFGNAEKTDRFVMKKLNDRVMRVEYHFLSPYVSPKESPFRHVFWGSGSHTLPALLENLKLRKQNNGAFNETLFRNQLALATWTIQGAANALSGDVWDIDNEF

The experiment has as its target T1, human transferrin receptor (recombinant, for surface plasmon resonance) (human, UniProt P02786 89-760).
T1 construct: also called huTfR; human transferrin receptor-biotinylated
In words: SPR 25C.
Turning to B1, the koff turned out to be 0.00104 s⁻¹.

Consider B2, for which the koff is 0.00637 s⁻¹.

With B3, the koff is 0.00421 s⁻¹.

With B4, the koff amounted to 0.00638 s⁻¹.

On to B5, for which the koff turned out to be 0.00112 s⁻¹.

On to B6, for which the koff came to 0.00222 s⁻¹.

As to B7, the off-rate constant (koff) was found to be 0.00105 s⁻¹.

For the molecule B8, the koff is 0.00332 s⁻¹.

As to B9, the koff worked out at 0.00739 s⁻¹.

As to B10, the koff stood at 0.00546 s⁻¹.

With B11, the koff stood at 0.00273 s⁻¹.

For the molecule B12, the koff stood at 0.00239 s⁻¹.

For the molecule B13, the koff amounted to 0.00175 s⁻¹.

As for B14, the koff stood at 0.00669 s⁻¹.

For the molecule B15, the koff was 0.00103 s⁻¹.

Turning to B16, the koff is 0.000733 s⁻¹.

In the case of B17, the off-rate (koff) turned out to be 0.00351 s⁻¹.

As for B18, the koff turned out to be 0.00796 s⁻¹.

Consider B19, for which the koff came to 0.003 s⁻¹.

With B20, the koff was 0.00181 s⁻¹.

Consider B21, for which the koff was determined as 0.00194 s⁻¹.
